Experimental data taken from patent US20240383984A1 (Genentech, published 2024).

Assays:
[1] = biological target: T1, human FcRH5 protein fragment (soluble) (human, UniProt Q96RD9 16-851); test: SPR, hIgG capture, screening
T1 construct: whole entry named; also called soluble human FcRH5; Human FcRH5 (BIACORE analyte)
T1 sequence: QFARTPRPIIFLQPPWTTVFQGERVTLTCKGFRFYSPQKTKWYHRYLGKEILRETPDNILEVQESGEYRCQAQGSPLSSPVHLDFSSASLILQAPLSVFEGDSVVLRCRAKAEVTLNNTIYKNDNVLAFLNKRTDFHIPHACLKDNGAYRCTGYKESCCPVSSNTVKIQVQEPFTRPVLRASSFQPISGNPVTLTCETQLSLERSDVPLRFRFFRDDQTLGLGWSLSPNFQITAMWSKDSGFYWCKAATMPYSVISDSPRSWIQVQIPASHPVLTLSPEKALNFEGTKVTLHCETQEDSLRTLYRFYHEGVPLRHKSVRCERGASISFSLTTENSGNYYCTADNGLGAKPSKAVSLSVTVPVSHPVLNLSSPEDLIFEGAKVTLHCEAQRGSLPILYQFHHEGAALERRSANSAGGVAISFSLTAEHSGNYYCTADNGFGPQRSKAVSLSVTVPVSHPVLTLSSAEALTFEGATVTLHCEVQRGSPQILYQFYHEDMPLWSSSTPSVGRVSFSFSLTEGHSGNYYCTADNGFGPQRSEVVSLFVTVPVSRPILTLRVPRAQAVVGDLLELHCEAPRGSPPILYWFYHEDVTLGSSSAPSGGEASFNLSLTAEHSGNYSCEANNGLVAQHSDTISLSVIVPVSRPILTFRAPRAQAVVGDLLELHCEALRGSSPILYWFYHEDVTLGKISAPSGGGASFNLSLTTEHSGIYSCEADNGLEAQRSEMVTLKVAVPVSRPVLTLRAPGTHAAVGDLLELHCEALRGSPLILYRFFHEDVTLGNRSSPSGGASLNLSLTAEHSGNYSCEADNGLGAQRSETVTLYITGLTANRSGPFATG
Description: (§1) Briefly, a human IgG capture surface was generated on a Series S CM5 chip using amine coupling and the human IgG capture kit (GE Life Sciences, Piscataway, NJ). Test antibodies were then captured on flow cells 2, 3, or 4, with flow cell 1 used as a reference. An FcRH5 protein fragment was used as the analyte, with a flow rate of […]. Between injections the capture surface was regenerated by a 30-second injection of 3M magnesium chloride or 10 mM glycine, pH 1.5. Interactions were assessed at 25° C. in 10 mM HEPES pH7.4, 150 mM NaCl, and 0.05% Tween 20 (HBSP). Reference data from the reference flow cell and from injection of buffer alone were subtracted prior to kinetic analysis. Kinetic information was calculated by fitting data to a 1:1 binding model. Reference subtraction and data fitting were performed using BIAevaluation software (GE Life Sciences, Piscataway, NJ).
(§2) For affinity screening of HVR-H2 Trp52 and Met64 variants (Table 7), antibodies were expressed by transient transfection of Expi293 cells and purified using tip columns that were custom packed with affinity resin MabSelect SuRe (Glygen Corp., Columbia, MD & GE Life Sciences, Piscataway, NJ). […] Binding of FcRH5 protein fragment to captured antibodies was monitored at 100 nM and 500 nM. Association and dissociation were monitored at a flow rate of 40 μl/min, for 180 s and 300 s, respectively.

[2] = biological target: T1, human FcRH5 protein fragment (soluble); test: SPR (BIACORE), IgG captured via anti-human IgG, FcRH5 protein fragment as analyte (100 and 500 nM)
Description: as §1, §2

| Binder | Kd [1] [nM] | Kd [2] [nM] |
| --- | --- | --- |
| hu1G7.v1 heavy chain W52H with light chain of hu1G7.v1.5 (antibody, V domains shown, human IgG) VH: EVQLVESGPGLVKPSETLSLTCTVSGFSLTRFGVHWVRQPPGKGLEWLGVIHRGGSTDYNAAFMSRLTISKDNSKNQVSLKLSSVTAADTAVYYCSNHYYGSSDYALDNWGQGTLVTVSS VL: DIQMTQSPSSLSASVGDRVTITCKASQDVSNIVVWFQQKPGKSPKLLIYSGYYRYTGVPSRFSGSGSGTDFTLTISSLQPEDFATYYCQQQFQPPYTFGQGTKVEIK | 67 | 67.3 |
| hu1G7.v1 heavy chain W52L with light chain of hu1G7.v1.6 (antibody, V domains shown, human IgG) VH: EVQLVESGPGLVKPSETLSLTCTVSGFSLTRFGVHWVRQPPGKGLEWLGVILRGGSTDYNAAFMSRLTISKDNSKNQVSLKLSSVTAADTAVYYCSNHYYGSSDYALDNWGQGTLVTVSS VL: DIQMTQSPSSLSASVGDRVTITCKASQDVSNIVVWFQQKPGKAPKLLIYSGYYRYSGVPSRFSGSGSGTDFTLTISSLQPEDFATYYCQQQYQPPYTFGQGTKVEIK | 250 | 250 |
| hu1G7.v1 heavy chain W52H with light chain of hu1G7.v1.7 (antibody, V domains shown, human IgG) VH: EVQLVESGPGLVKPSETLSLTCTVSGFSLTRFGVHWVRQPPGKGLEWLGVIHRGGSTDYNAAFMSRLTISKDNSKNQVSLKLSSVTAADTAVYYCSNHYYGSSDYALDNWGQGTLVTVSS VL: DIQMTQSPSSLSASVGDRVTITCKASQDVRNLVVWFQQKPGKAPKLLIYSGYYRYTGVPSRFSGSGSGTDFTLTISSLQPEDFATYYCQQHYQPPYTFGQGTKVEIK | 90 | 89.8 |
| hu1G7.v1 heavy chain W52L with light chain of hu1G7.v1.3 (antibody, V domains shown, human IgG) VH: EVQLVESGPGLVKPSETLSLTCTVSGFSLTRFGVHWVRQPPGKGLEWLGVILRGGSTDYNAAFMSRLTISKDNSKNQVSLKLSSVTAADTAVYYCSNHYYGSSDYALDNWGQGTLVTVSS VL: DIQMTQSPSSLSASVGDRVTITCKASQDVRNIVVWFQQKPGKAPKLLIYSGSYRYSGVPSRFSGSGSGTDFTLTISSLQPEDFATYYCQQQYSPPYTFGQGTKVEIK | 240 | 239 |
| hu1G7.v1 heavy chain W52L with light chain of hu1G7.v1.4 (antibody, V domains shown, human IgG) VH: EVQLVESGPGLVKPSETLSLTCTVSGFSLTRFGVHWVRQPPGKGLEWLGVILRGGSTDYNAAFMSRLTISKDNSKNQVSLKLSSVTAADTAVYYCSNHYYGSSDYALDNWGQGTLVTVSS VL: DIQMTQSPSSLSASVGDRVTITCKASQDVRNLVVWFQQKPGKAPKLLIYSGSYRYSGVPSRFSGSGSGTDFTLTISSLQPEDFATYYCQQHYSPPYTFGQGTKVEIK | 92 | 92 |
| hu1G7.v1 heavy chain W52H with light chain of hu1G7.v1.6 (antibody, V domains shown, human IgG) VH: EVQLVESGPGLVKPSETLSLTCTVSGFSLTRFGVHWVRQPPGKGLEWLGVIHRGGSTDYNAAFMSRLTISKDNSKNQVSLKLSSVTAADTAVYYCSNHYYGSSDYALDNWGQGTLVTVSS VL: DIQMTQSPSSLSASVGDRVTITCKASQDVSNIVVWFQQKPGKAPKLLIYSGYYRYSGVPSRFSGSGSGTDFTLTISSLQPEDFATYYCQQQYQPPYTFGQGTKVEIK | 110 | 109 |
| hu1G7.v1 heavy chain W52L with light chain of hu1G7.v1 (antibody, V domains shown, human IgG) VH: EVQLVESGPGLVKPSETLSLTCTVSGFSLTRFGVHWVRQPPGKGLEWLGVILRGGSTDYNAAFMSRLTISKDNSKNQVSLKLSSVTAADTAVYYCSNHYYGSSDYALDNWGQGTLVTVSS VL: DIQMTQSPSSLSASVGDRVTITCKASQDVSNIVVWFQQKPGKSPKLLIYSASYRYTGVPSRFSGSGSGTDFTLTISSLQPEDFATYYCQQHYSSPYTFGQGTKVEIK | 100 | 103 |
| hu1G7.v1 heavy chain W52L with light chain of hu1G7.v1.5 (antibody, V domains shown, human IgG) VH: EVQLVESGPGLVKPSETLSLTCTVSGFSLTRFGVHWVRQPPGKGLEWLGVILRGGSTDYNAAFMSRLTISKDNSKNQVSLKLSSVTAADTAVYYCSNHYYGSSDYALDNWGQGTLVTVSS VL: DIQMTQSPSSLSASVGDRVTITCKASQDVSNIVVWFQQKPGKSPKLLIYSGYYRYTGVPSRFSGSGSGTDFTLTISSLQPEDFATYYCQQQFQPPYTFGQGTKVEIK | 130 | 125 |
